US20260035484A1 (LONGBIO PHARMA SUZHOU, published 2026)
Where a chain is given by its changes, count along the chain named.

B1: Humanized antibody SE2 (antibody, human IgG1, kappa, V domains shown)
VH: QVQLQESGPGLVKPSQTLSLTCTVSGYSITSDYAWNWIRQPPGNGLEWMGYISYSGSTRYNPSLKSRITISRDTSKNQFSLKLSSVTAADTAVYFCVYGSSQRFFDYWGQGTLVTVSS
VL: DILMTQSPDSLAVSLGERATINCKASQDVSIDVAWYQQKPGQPPKLLIYSASFRYAGVPDRFSGSGSGTDFTLTISSLQAEDVAVYYCQQHYSLFTFGSGTKLEIKR
notes: also called SE2 humanized antibody; humanized SE2
B2: Humanized antibody SE5 (antibody, human IgG1, kappa, V domains shown)
VH: B1 VH with M49L, S53N, S57T
VL: B1 VL with L3V, F53W, G66R, F71Y, S93N
notes: also called SE5 humanized antibody; humanized SE5
B3: chimeric antibody SE2 (mouse SE2 variable regions, human IgG1/kappa constant regions) (antibody, V domains shown)
VH: DVQLLESGPGLVKPSQSLSLTCTVTGYSITSDYAWNWIRQFPGNKLEWMGYISYSGSTRYNPSLKSRISISRDTSKNQFFLQLNSVTSEDTATYFCVYGSSQRFFDYWGQGTTLTVSS
VL: DILMTQSHKFMSTSIGDRVSITCKASQDVSIDVAWYHQKPGQSPKLLIYSASFRYAGVPDRFTGSGSGTDFTLTISSVQAEDLAVYYCQQHYSLFTFGSGTKLEIKR
notes: also called chimeric recombinant monoclonal antibody
B4: mouse-derived monoclonal antibody SE2 (antibody, V domains shown)
VH: B3 VH
VL: DILMTQSHKFMSTSIGDRVSITCKASQDVSIDVAWYHQKPGQSPKLLIYSASFRYAGVPDRFTGSGSGTDFTLTISSVQAEDLAVYYCQQHYSLFTFGSGTKLEIK
notes: the cloning primer was homologous to the mouse IgG1 heavy chain constant region; also called SE2 mouse hybridoma antibody; mouse-derived parent antibody of SE2
B5: mouse-derived monoclonal antibody SE5 (antibody, V domains shown)
VH: B3 VH with M49L, S53N, S57T
VL: B4 VL with L3V, I15V, H37Q, F53W, G66R, F71Y, S93N, K106Q
notes: the cloning primer was homologous to the mouse IgG1 heavy chain constant region; also called SE5 mouse hybridoma antibody; mouse-derived parent antibody of SE5
B6: chimeric antibody SE5 (mouse SE5 variable regions, human IgG1/kappa constant regions) (antibody, V domains shown)
VH: B3 VH with M49L, S53N, S57T
VL: B3 VL with L3V, I15V, H37Q, F53W, G66R, F71Y, S93N, K106Q
notes: as for B3

Experiments:
[1] = target: T1, biotin-labelled human IgE-Fc (human, UniProt P01854 104-427, biotin-labelled); assay: blocking ELISA: inhibition of biotin-labelled human IgE-Fc binding to coated FcεRIα-Fc
T1 construct: also called recombinant human IgE-Fc protein; Fc region (CH2-4) protein of human IgE
Procedure: (§1) The method specifically included diluting the recombinantly expressed human FcεRIα-Fc protein (with its amino acid sequence as set forth in SEQ ID NO: 51) with PBS to a final concentration of 1 μg/mL, coating the ELISA plates (purchased from Corning, Product code: 42592) at 100 μL per well, and keeping at 4° C. overnight. The next day, the coating solution was discarded. The wells were blocked with 2.5% skimmed milk dissolved in PBS for 1 hour and washed with PBS containing 0.05% Tween-20. […] After discarding the supernatant, the wells were washed with PBS containing 0.05% Tween-20 and detected by using HRP-labelled streptavidin (purchased from Sangon Biotech, Product code: D111054-0001).

[2] = target: T2, human IgE (abcam, Product code ab65866) (human, UniProt P01854-1 1-428); assay: MSD-SET, solution equilibrium titration
T2 construct: also called antigen human IgE
Procedure: The solution equilibrium titration (SET) was performed in PBS+0.1% of IgG-free BSAbuffer (PBSF), where the antigen human IgE (purchased from: abcam, Product code: ab65866) was kept constant at 10-100 pM and incubated with 3-fold serial dilutions of humanized antibodies starting from 0.1-100 nM. […] 20 nM of antibodies diluted in PBS were coated onto standard binding MSD-ECL plates (purchased from MSD, Product code: L15XA-3) at 4° C. overnight. The MSD-ECL plates were blocked with 1% of Casein for 30 min while shaking at 700 rpm, and then washed with washing buffer (PBS+0.05% Tween 20) three times. The samples incubated with 2-fold serial dilutions of antigen human IgE and humanized antibodies were added into the MSD-ECL plates, incubated for 150 s while shaking at 700 rpm, and then washed once. […] 1× reading buffer T (purchased from MSD, Product code: R92TC-1) was added to read on an MSD Sector Imager instrument (Model: MESO QuickPlex SQ 120). In a Prism-GraphPad6 software, the percentage of free antigens was plotted as a function of titrated antibodies and fitted into a quadratic equation to extract the KD values.

[3] = target: T1, biotin-labelled human IgE-Fc; assay: blocking ELISA: FcεRIα-Fc coated, biotin-labelled human IgE-Fc (100 ng/mL) premixed with the antibody, streptavidin-HRP; blocked ligand FcεRIα-Fc
Procedure: as §1

[4] = target: T1, biotin-labelled human IgE-Fc; assay: blocking ELISA, inhibition ratio: FcεRIα-Fc coated, biotin-labelled human IgE-Fc (100 ng/mL) premixed with the antibody, streptavidin-HRP; blocked ligand FcεRIα-Fc
Procedure: as §1, with “[…],” for “μg/mL,”, “diluted with” for “detected by using”, “D111054-0001) at 1:1000 for detection. The inhibition ratio of different antibodies at different concentrations was calculated following the formula below: Inhibition ratio at antibody concentration of X (%)=(OD₄₅₀ readout at antibody concentration of 0-OD₄₅₀ readout at antibody concentration of X)/OD₄₅₀ readout at antibody concentration of 0×100.” for “D111054-0001).”

[5] = target: T1, biotin-labelled human IgE-Fc; assay: blocking ELISA: FcεRIα-Fc coated, biotin-labelled human IgE-Fc (1 µg/mL) premixed with the antibody, streptavidin-HRP; blocked ligand FcεRIα-Fc
Procedure: The next day, the coating solution was discarded. The wells were blocked with 2.5% skimmed milk dissolved in PBS for 1 hour and washed with PBS containing 0.05% Tween-20. […] After discarding the supernatant, the wells were washed with PBS containing 0.05% Tween-20 and diluted with HRP-labelled streptavidin (purchased from Sangon Biotech, Product code: D111054-0001) at 1:1000 for detection.

T1 sequence (P01854 other isoform, or with tags, fused parts or gaps limits assumed): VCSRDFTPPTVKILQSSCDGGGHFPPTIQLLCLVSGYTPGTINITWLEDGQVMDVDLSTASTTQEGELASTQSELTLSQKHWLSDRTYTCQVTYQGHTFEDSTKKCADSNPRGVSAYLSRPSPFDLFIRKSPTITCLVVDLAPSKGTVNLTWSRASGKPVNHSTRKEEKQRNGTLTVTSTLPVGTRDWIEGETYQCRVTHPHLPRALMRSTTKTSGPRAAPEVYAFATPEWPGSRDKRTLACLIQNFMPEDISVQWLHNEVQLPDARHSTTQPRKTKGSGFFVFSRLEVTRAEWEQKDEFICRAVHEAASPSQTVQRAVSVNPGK
T2 sequence (P01854 other isoform, or with tags, fused parts or gaps): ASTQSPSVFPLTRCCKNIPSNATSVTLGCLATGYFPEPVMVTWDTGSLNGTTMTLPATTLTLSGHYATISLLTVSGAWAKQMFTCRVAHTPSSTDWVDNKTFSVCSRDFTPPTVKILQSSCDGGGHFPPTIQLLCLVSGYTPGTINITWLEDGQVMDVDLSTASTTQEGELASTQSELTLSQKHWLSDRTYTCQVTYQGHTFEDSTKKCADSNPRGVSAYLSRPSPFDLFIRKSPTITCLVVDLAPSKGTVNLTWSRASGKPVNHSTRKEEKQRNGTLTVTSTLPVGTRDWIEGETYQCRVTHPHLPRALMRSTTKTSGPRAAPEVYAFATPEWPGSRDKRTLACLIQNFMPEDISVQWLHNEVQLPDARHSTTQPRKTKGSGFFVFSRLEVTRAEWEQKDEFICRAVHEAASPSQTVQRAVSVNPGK

Row | Binder | IC50 [1] | Kd [2] [nM] | IC50 (read off the curve) [3] [mg/L] | IC50 (read off the curve) [4] [mg/L] | IC50 (read off the curve) [5] [mg/L]
1 | B1 | ~0.417 mg/L | 0.0109 |  |  | 
2 | B2 | ~0.266 nM | 0.01 | ~0.06 |  | 
3 | B3 |  |  |  | ~0.2 | 
4 | B4 |  |  |  | ~0.2 | ~0.3
5 | B5 |  |  | ~0.07 | ~0.08 | ~0.2
6 | B6 |  |  |  | ~0.08 | 
